This note sets out measurements from article PMC3587138 (Nature, 2011).

First the molecules themselves.
B2: recombinant 6×His-tagged Hub1 (natural protein, S. cerevisiae)
chain: MIEVVVNDRLGKKVRVKCLAEDSVGDFKKVLSLQIGTQPNKIVLQKGGSVLKDHISLEDYEVHDQTNLELYYL

Assay [1] has as its target B2. Briefly: NMR titration.
Assay [2] addresses T1, full-length Snu66 (recombinant) (S. cerevisiae, UniProt Q12420 1-587).
T1 sequence (looked up): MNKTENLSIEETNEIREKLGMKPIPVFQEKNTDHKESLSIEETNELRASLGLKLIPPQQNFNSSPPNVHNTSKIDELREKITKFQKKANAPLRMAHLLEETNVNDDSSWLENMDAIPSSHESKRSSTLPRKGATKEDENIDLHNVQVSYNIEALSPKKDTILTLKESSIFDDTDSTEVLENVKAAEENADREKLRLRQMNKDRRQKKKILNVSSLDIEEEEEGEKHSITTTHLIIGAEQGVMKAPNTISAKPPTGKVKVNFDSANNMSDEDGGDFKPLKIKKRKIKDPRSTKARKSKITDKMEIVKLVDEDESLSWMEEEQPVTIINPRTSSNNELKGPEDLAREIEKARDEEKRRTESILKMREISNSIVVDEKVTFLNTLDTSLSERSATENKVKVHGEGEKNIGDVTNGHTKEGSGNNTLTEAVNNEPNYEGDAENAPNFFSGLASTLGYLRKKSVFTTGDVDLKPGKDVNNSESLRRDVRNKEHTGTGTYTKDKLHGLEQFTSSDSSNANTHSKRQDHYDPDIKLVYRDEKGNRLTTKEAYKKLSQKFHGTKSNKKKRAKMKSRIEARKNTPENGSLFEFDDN
Put plainly: ITC. Background: In ITC the heat of successive injections is recorded.

B1: N-terminal 65-amino-acid fragment of Snu66 (domain or fragment, S. cerevisiae, UniProt Q12420 1-65, looked up)
chain: MNKTENLSIEETNEIREKLGMKPIPVFQEKNTDHKESLSIEETNELRASLGLKLIPPQQNFNSSP
Regarding B1, the binding result in assay [1] is on record as “binds”. Consider B2, for which the Kd in assay [2] came to 590 ± 70 nM.

The term Kd denotes the constant that tells how readily two partners part at equilibrium.
